The results in this text go back to patent publication US7572612B2, “Method of production of para-hydroxycinnamic acid using a thermostable TAL enzyme” (E.I. du Pont de Nemours and Company, priority 2006, dated 2009).

Test [1] in a line: Bioconversion of tyrosine to pHCA by cell suspensions in 50 ml tubes. It counts as cell-based, E. coli. Particulars: pH 9.9, 0.5 g dcw/L, 20 g/L tyrosine (Example 11). As for the experimental part:
A suspension of DPD5154 cells in ˜75 ml of saline solution (8.5 g NaCl/L) with a cell concentration at an OD550 of 221.47 was used. The desired OD550 of 2.998 (0.989 g dcw/L) was achieved through serial dilution of the original sample. The cell suspension was equilibrated to 50° C., titrated to pH 9.9 and stored at 50° C. A tyrosine stock of 40 g/L at pH 9.9 was also prepared and stored at 50° C. Reactions measuring bioconversion of tyrosine to pHCA by the cell suspension were carried out at the following temperatures: 34° C., 39° C., 47° C., and 59° C. Each reaction was initiated by adding 5.0 ml of the cell suspension to 5.0 ml of the 40 g/L tyrosine solution in a 50 ml disposable conical tube. The final concentration of cells in each reaction was 0.5 g dcw/L. The final concentration of tyrosine in each reaction was 20 g/L (110 mM). All reactions were incubated at the temperatures indicated above with shaking at 180 rpm. Samples (750 μl) were taken at 30, 60, 90, 120 minutes, centrifuged (14,000×g for ˜8 minutes), the supernatants filtered through 0.2 um filters (Costar #8161), and the filtrates diluted using 50 mM Tris/HCl, pH 7.5. The filtrates were analyzed by HPLC for the amount of pHCA as described in General Methods. The optimum reaction temperature among those temperatures tested was determined to be 39° C., and the reaction slowed down dramatically at 59° C. […]
To determine the optimum pH (between pH 9.8-11.0) for the bioconversion reaction of tyrosine to pHCA at 42° C. using strain DPD5154, reactions were performed as described in Example 11. Tyrosine solutions (40 g/L concentration) were titrated to pH 9.8, 10.0, 10.2, 10.5, and 11.0 and stored at 42° C. Reactions were initiated by adding 5.0 ml of cell suspension to 5.0 ml of each tyrosine solution in a 50 ml disposable conical tube. The final concentration of cells in each reaction was 0.5 g dcw/L and the final concentration of tyrosine was 20 g/L (110 mM). Reactions were incubated at 42° C. with shaking at 180 rpm.

Test [2] in a line: Conversion of tyrosine to pHCA in 3 L Applikon BioReactors. It counts as cell-based, E. coli. As for the experimental part: The following experiment was performed in an Applikon BioReactor (9.0 liter working volume) where pH and temperature of the reaction were controlled. Both strains DPD5154 and DPD5124 were tested. The E. coli DPD5154 (PcTAL) cells were produced by the protocol described in Example 6, with a final cell density of […]. In the case of E. coli DPD5124 (RgTAL) the inoculum was grown in a 2.0 L shake flask containing 500 ml of the following medium (in grams per liter) KH2PO4 (2.0 g/L), K2HPO4 (13.0 g/L), (NH4)2HPO4 […]), MgSO4.7H2O (1.0 g/L), yeast extract (2.0 g/L), Ferric Ammonium Citrate (0.1 g/L). The pH was adjusted to 7.0 and the medium steam sterilized. Glucose (30.0 g/L) and ampicillin (50 mg/L) were added post-sterilization. The culture was grown in 2 L flasks with 500 mL medium, at 35° C. to about OD550 of 2.0 and then the entire contents was used to inoculate the fermentor. The fermentor was controlled at 36° C., pH 6.8, with the dissolved oxygen (DO) tension of 25% controlled with cascade of agitation and air flow with agitation from 400 to 1000 rpm and airflow from 2 to 16 SLPM. The overhead pressure was 0.5. When the glucose level reached below 4.0 g/L a glucose feed program with 60% glucose (w/w) was initiated, consisting of: first 4 h at 0.36 g/min, next 12 h at 0.73 g/min and to the end of run at 0.56 g/min. When the culture reached an OD550 of 35, arabinose was added to final concentration of 0.5 g/L The fermentation was terminated 20 h after arabinose addition. The final cell density in the fermentation broth was an OD550 of 90 and the final volume was about 9 liter. The g dcw/L was determined assuming that 1.0 OD550 contained 0.33 g dcw/L:=30 g dcw/L.
The cells were harvested by centrifugation and stored as a frozen paste at −80° C. until use. Before use, the cell paste was thawed and suspended in the saline solution to about 10% w/v. The cell dry weight concentration was calculated from [cells wet weight]×[% solids] where [% solids] was determined after drying the cells in a vacuum oven, at 90° C. for >16 h.
The tyrosine used was AR grade (J. T. Baker). It was suspended in distilled, deionized water at 33% w/w concentration, homogenized in a blender and added to about 50 g/L final concentration. Reactions were conducted in 3 L Applikon BioReactors (Applikon, De Brauwweg 13, The Netherlands), with a 1-2 L working volume. The set points for the control systems were pH 9.9 with automatic addition of NaOH 25% w/v with agitation at 400 rpm. The bioconversion was typically done by adding the tyrosine suspension to the appropriate concentration, adjusting the pH and temperature to the determined set point, adding the cell suspension to the appropriate concentration, and DI water to the final volume.

Setting [3] is: 30 C., cell conc 6 g/L, reaction time 19 h.
Setting [4] is: 35 C., cell conc 6 g/L, reaction time 15 h.
The mark [5] stands for this setting: 40 C., cell conc 6 g/L, reaction time 7 h.
[6] abbreviates: 43 C., cell conc 6 g/L, reaction time 6 h.
Setting [7] is: 45 C., cell conc 2 g/L, reaction time 19 h.
Setting [8] is: 45 C., cell conc 4 g/L, reaction time 10 h.
Setting [9] is: 45 C., cell conc 6 g/L, reaction time 6 h.
Setting [10] is: 48 C., cell conc 6 g/L, reaction time 6 h.

B1: PcTAL: thermostable tyrosine ammonia lyase (PAL/TAL) enzyme from Phanerochaete chrysosporium, SEQ ID NO:1 (protein, listed as Phanerochaete chrysosporium)
chain: MPSRIDYYTSSGNGYAQSRKSSAIYPASASTGHAAPSTERKPELLDKFVEAYDELQSYREGKPVIVDGHNLSIPAVAATARFGAAVVLDENPETHERVLQSRRVIVDKVSTQRSVYGVSTGFGGSADTRTSDPLQLGHALLQHQHVGVLPTQTESPLPALPLGDPLATTSMPEAWVRGAILIRMNSLIRGHSGVRWELIEKMGELLRENITPLVPLRGSISASGDLSPLSYIAGTLIGSPAIRVFDGPASYGARRILPSNIALANHGVAPIPLSSKEHLGILNGTAFSASVGALALNEAVHLSLLAQVCTAMGTEAMIGAVGSFDAFIHDTARPHPGQVEVARNVRTLLEDSQMAVKAEDEVHIAEDEGELRQDRYPLRTAAQFLGPQIEDILSAHETVTLECNSTTDNPLIDGETGTVHHGGNFQAMAVTNAMEKTRLAIHHIGKLLFAQATELINPMMNRGLPPNLAATDPSHNYFAKGVDIHLAAYVGELGFLASPVSSHIQSAEMHNQAVNSLALVSARYTISALDVLSLLTAAYLYVLCQALDLRAMHNDLQSSLSAIVRELLPKHFPSAAKRADALLPILERTIFRALNSSSSADCKARMVSVAASTTTPLVDFLSADAALASELANITAFRTELATRAADALTTLRTQYLEGARGAAPASKYLGKTRPVYEFVRVTLNVPMHGRENLHNFEMGPGVEDGIIGNNISTIYEAIRDGKMQNVVMQLVKSIKA
Consider B1, for which the “pHCA (mM) formed in 2 h” value is recorded as 5.0 mM in test [1] (34° C.), 6.2 mM in test [1] (39° C.), 4.7 mM in test [1] (47° C.) and 0.02 mM in test [1] (59° C.). Moreover, the “Prod g/L-h” value amounted to 2.20 g/L-h in test [2] (setting [3]); 2.79 g/L-h in test [2] (setting [4]); 5.94 g/L-h in test [2] (setting [5]); 6.90 g/L-h in test [2] (setting [6]); 2.22 g/L-h in test [2] (setting [7]); 4.18 g/L-h in test [2] (setting [8]). The “Prod g/L-h” value was 6.83 g/L-h in test [2] (setting [9]) and 7.00 g/L-h in test [2] (setting [10]). Further, the Prod g/g-h in test [2] (setting [3]) came out at 0.37 g/g-h; in test [2] (setting [4]), 0.46 g/g-h; in test [2] (setting [5]), 0.99 g/g-h; in test [2] (setting [6]), 1.15 g/g-h; in test [2] (setting [7]), 1.11 g/g-h; in test [2] (setting [8]), 1.05 g/g-h. Further, the Prod g/g-h turned out to be 1.14 g/g-h in test [2] (setting [9]) and 1.17 g/g-h in test [2] (setting [10]).
